Measured values as given in patent publication US8067005.

Biological target: T1, human TNF (human, UniProt P01375 77-233)
T1 construct: Passed over captured antibody in solution; also called human TNFα
Assay: SPR (BIAcore); antibody captured by immobilized anti-Fab′ antibody, human TNF passed over

T1 sequence (P01375 77-233 limits assumed): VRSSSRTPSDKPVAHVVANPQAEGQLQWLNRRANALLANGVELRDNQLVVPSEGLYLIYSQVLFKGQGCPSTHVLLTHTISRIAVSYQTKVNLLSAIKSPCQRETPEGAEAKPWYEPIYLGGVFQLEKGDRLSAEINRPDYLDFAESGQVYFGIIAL

B1: hTNF40 IgG (antibody, V domains shown)
VH: QIQLVQSGPELKKPGETVKISCKASGYVFTDYGMNWVKQAPGKAFKWMGWINTYIGEPIYVDDFKGRFAFSLETSASTAFLQINNLKNEDTATYFCARGYRSYAMDYWGQGTSVTVSS
VL: DIVMTQSQKFMSTSVGDRVSVTCKATQNVGTNVAWYQQKPGQSPKALIYSASFLYSGVPYRFTGSGSGTDFTLTISTVQSEDLAEYFCQQYNIYPLTFGAGTKLELKR
Kd: 0.179 nM
